The values that follow come from publication PMC12049489.

Common to all, as to assay: SPR
A general note: Surface plasmon resonance follows binding to a sensor surface in real time, without labels.

Experiment [1] deals with anti-Aβ hIgG4 YEY (human).
In experiment [2] the target is anti-BACE1 hIgG1 M252Y / Q311A / N434Y / Y436I (human).
Experiment [3] deals with anti-BACE1 hIgG1 M252Y / Q311I / N434Y / Y436I (human).
For experiment [4], the target named is anti-BACE1 hIgG1 M252Y / T307Q / Q311A / N434Y (human).
In experiment [5] the target is anti-BACE1 hIgG1 M252Y / V308P / N434Y (human).
Experiment [6] concerns the target anti-BACE1 hIgG1 Q5 (M252Y / Q311I / N434Y / Y436I) (human).
Experiment [7] addresses anti-BACE1 hIgG1 Q7 (M252Y / Q311A / N434Y / Y436I) (human).
The target of a further experiment is M252F mIgG2a (mouse).
In the next experiment the target is M252Y mIgG2a (mouse).
Experiment [8] addresses M252Y.Q309T mIgG2a (mouse).

For orientation: Kd means the constant that tells how readily two partners part at equilibrium. A higher Kd goes with lower affinity.

“cynomolgus monkey FcRn (from UniProt Q8SPV9 24-365) (receptor)” gave a Kd in [1] of 0.009 µM.
On to “human neonatal Fc receptor (hFcRn) (from UniProt P55899 24-365; P61769 21-119)”, for which the Kd came to 0.006 µM in [2]; 0.252 µM in [3]; 0.333 µM in experiment [4]; 0.127 µM in experiment [5]; 0.252 µM in [6]; 0.006 µM in experiment [7].
Take “mouse FcRn (from UniProt Q61559 22-365) (receptor)”: the Kd worked out at 3.32 µM with M252F mIgG2a (mouse), 0.826 µM with M252Y mIgG2a (mouse) and 0.308 µM in experiment [8].
